# According to the supplement of paper PMC10724198:
# ± gives the standard deviation of the averaged measurements.
# Experiments:
# Saccharomyces cerevisiae [1] = assay: protein stability index of tFT-peptide fusion (C-terminal peptide) (PSI (0-1 scale)); higher = more stable (slower turnover)
# Protocol: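 MPS profiling in S. cerevisiae of the tFT-X12 degron library: putative degron peptides plus stable controls, 12 aa, fused to the C-terminus of a sfGFP-mCherry timer. Cells are FACS-sorted into 8 mCherry/sfGFP bins and deep-sequenced. PSI runs from 0 (unstable) to 1 (stable). Backgrounds are wild type, das1Δ and doa10Δ at 30 °C, and wild type, das1Δ, cdc34-1 and cdc53-1 at 37 °C; 2-3 technical replicates each.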
# Saccharomyces cerevisiae [2] = assay: as above; conditions: genetic background: wild type; temperature: 30 C
# [3] = genetic background: cdc34-1, temperature: 37 C
# [4] = genetic background: cdc53-1, temperature: 37 C
# [5] = genetic background: das1 deletion, temperature: 30 C
# [6] = genetic background: das1 deletion, temperature: 37 C
# [7] = genetic background: doa10 deletion, temperature: 30 C
# [8] = genetic background: wild type, temperature: 30 C
# [9] = genetic background: wild type, temperature: 37 C
# 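Also: PSI is a weighted mean of sequencing reads over stability bins, variants kept only with over 10 reads, mCherry proximal and sfGFP distal, peptide attached via GGGS linker.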
Sequence,protein stability index (Saccharomyces cerevisiae [1]; [3]),protein stability index (Saccharomyces cerevisiae [1]; [4]),protein stability index (Saccharomyces cerevisiae [1]; [5]),protein stability index (Saccharomyces cerevisiae [1]; [6]),protein stability index (Saccharomyces cerevisiae [1]; [7]),protein stability index (Saccharomyces cerevisiae [1]; [8]),protein stability index (Saccharomyces cerevisiae [1]; [9]),protein stability index (Saccharomyces cerevisiae [2])
FLSRHFLFLSFV,0.467 ± 0.036,0.489 ± 0.047,0.505 ± 0.019,0.6779 ± 0.0061,0.4114 ± 0.0017,0.308 ± 0.031,0.443 ± 0.006,0.409 ± 0.016
FPFHSRPCLPVL,0.567 ± 0.0099,0.576 ± 0.11,0.475 ± 0.025,0.622 ± 0.041,0.4581 ± 0.0044,0.471 ± 0.012,0.5723 ± 0.0015,0.518 ± 0.056
FPTLVRKFINAI,0.448 ± 0.024,0.629 ± 0.052,0.56 ± 0.016,0.6825 ± 0.0019,0.0802 ± 0.011,0.0817 ± 0.014,0.123 ± 0.018,0.13 ± 0.0092
FRRSFPFPLFLR,0.105 ± 0.014,0.0555 ± 0.0048,0.196 ± 0.031,0.238 ± 0.03,0.696 ± 0.04,0.197 ± 0.045,0.219 ± 0.0033,0.232 ± 0.12
FSCRRISFFLLV,0.525 ± 0.014,0.676 ± 0.039,0.536 ± 0.043,0.628 ± 0.017,0.179 ± 0.011,0.176 ± 0.012,0.26 ± 0.015,0.182 ± 0.05
FSPLVCLLFFLF,0.492 ± 0.031,0.565 ± 0.018,0.424 ± 0.017,0.5725 ± 0.00062,0.32 ± 0.0052,0.333 ± 0.019,0.4778 ± 0.0016,0.3938 ± 0.00098
FSRFPFVKLSLV,0.642 ± 0.059,0.731 ± 0.019,0.6201 ± 0.0056,0.70163 ± 0.00051,0.161 ± 0.0044,0.197 ± 0.048,0.306 ± 0.012,0.297 ± 0.016
FSSWPFFSFYLS,0.681 ± 0.032,0.689 ± 0.021,0.617 ± 0.036,0.743 ± 0.026,0.415 ± 0.034,0.392 ± 0.024,0.6048 ± 0.0018,0.518 ± 0.036
FSVRLCLFVWGC,0.399 ± 0.036,0.481 ± 0.033,0.341 ± 0.028,0.4684 ± 0.004,0.305 ± 0.0062,0.317 ± 0.015,0.4483 ± 0.0025,0.436 ± 0.1
FSYFFIFFYMVC,0.207 ± 0.029,0.257 ± 0.042,0.234 ± 0.043,0.378 ± 0.038,0.152 ± 0.01,0.147 ± 0.035,0.228 ± 0.0028,0.238 ± 0.0085
FVGVVCILWLVG,0.177 ± 0.0044,0.33 ± 0.0064,0.252 ± 0.022,0.405 ± 0.0085,0.153 ± 0.017,0.176 ± 0.026,0.318 ± 0.073,0.356 ± 0.011
FVLFSIFHFFLW,0.424 ± 0.084,0.438 ± 0.039,0.362 ± 0.051,0.528 ± 0.041,0.356 ± 0.0048,0.347 ± 0.016,0.47 ± 0.0094,0.382 ± 0.027
FVLSLGQLVFIF,0.552 ± 0.03,0.5818 ± 0.0051,0.421 ± 0.028,0.607 ± 0.018,0.381 ± 0.0082,0.397 ± 0.029,0.548 ± 0.013,0.445 ± 0.016
FVSAFVCLLCLV,0.58 ± 0.041,0.6283 ± 0.006,0.509 ± 0.0073,0.615 ± 0.0078,0.357 ± 0.013,0.377 ± 0.016,0.4877 ± 0.00084,0.4919 ± 0.004
FVSFTVSFSVVV,0.296 ± 0.018,0.38 ± 0.031,0.334 ± 0.025,0.417 ± 0.01,0.357 ± 0.031,0.342 ± 0.0055,0.382 ± 0.0063,0.379 ± 0.032
FVVIFRFSRFSA,0.419 ± 0.12,0.477 ± 0.012,0.336 ± 0.025,0.512 ± 0.018,0.313 ± 0.0064,0.326 ± 0.0097,0.494 ± 0.037,0.39 ± 0.0004
FWYIRIRLAVVA,0.0797 ± 0.027,0.175 ± 0.029,0.0867 ± 0.013,0.179 ± 0.006,0.0283 ± 0.0015,0.0257 ± 0.0096,0.0826 ± 0.01,0.0536 ± 0.019
FYIWFFRLIYFF,0.421 ± 0.043,0.4414 ± 0.0014,0.402 ± 0.039,0.536 ± 0.019,0.344 ± 0.0048,0.331 ± 0.01,0.453 ± 0.012,0.408 ± 0.014
FYTYILTVAEAL,0.518 ± 0.041,0.583 ± 0.04,0.457 ± 0.021,0.531 ± 0.013,0.454 ± 0.0094,0.455 ± 0.014,0.5273 ± 0.0011,0.482 ± 0.015
GALVVSWAEVLC,0.5163 ± 0.0026,0.525 ± 0.01,0.402 ± 0.024,0.555 ± 0.0083,0.372 ± 0.014,0.402 ± 0.037,0.57 ± 0.02,0.503 ± 0.012

Sequence,protein stability index (Saccharomyces cerevisiae [1]; [3]),protein stability index (Saccharomyces cerevisiae [1]; [4]),protein stability index (Saccharomyces cerevisiae [1]; [5]),protein stability index (Saccharomyces cerevisiae [1]; [6]),protein stability index (Saccharomyces cerevisiae [1]; [7]),protein stability index (Saccharomyces cerevisiae [1]; [8]),protein stability index (Saccharomyces cerevisiae [1]; [9]),protein stability index (Saccharomyces cerevisiae [2])
GCLSFVAAVHLH,0.624 ± 0.026,0.6949 ± 0.0026,0.598 ± 0.043,0.69689 ± 0.00038,0.284 ± 0.024,0.332 ± 0.028,0.528 ± 0.034,0.4325 ± 0.0028
GCRLRHRLVRIV,0.517 ± 0.038,0.646 ± 0.052,0.604 ± 0.035,0.6902 ± 0.0065,0.109 ± 0.048,0.119 ± 0.044,0.201 ± 0.011,0.2105 ± 0.0013
GESCGGSERRVG,0.69 ± 0.019,0.7319 ± 0.0058,0.637 ± 0.009,0.7352 ± 0.0033,0.636 ± 0.024,0.666 ± 0.031,0.6897 ± 0.0056,0.643 ± 0.3
GFGRDHGNDTGP,0.712 ± 0.017,0.7331 ± 0.0021,0.6497 ± 0.0025,0.75 ± 0.0082,0.645 ± 0.021,0.648 ± 0.02,0.725 ± 0.0097,0.721 ± 0.0055
GFRVPVVVGVRG,0.449 ± 0.023,0.475 ± 0.03,0.334 ± 0.041,0.531 ± 0.0077,0.2939 ± 0.0024,0.33 ± 0.042,0.4999 ± 0.0013,0.432 ± 0.0044
GFSSRWLMQYMV,0.585 ± 0.05,0.737 ± 0.0088,0.665 ± 0.021,0.747 ± 0.0094,0.326 ± 0.014,0.375 ± 0.11,0.462 ± 0.042,0.369 ± 0.0081
GGGGGGGGGGVG,0.313 ± 0.019,0.427 ± 0.044,0.397 ± 0.014,0.457 ± 0.057,0.391 ± 0.004,0.387 ± 0.024,0.446 ± 0.03,0.514 ± 0.045
GGGVGVAVVLFW,0.432 ± 0.024,0.501 ± 0.012,0.34 ± 0.027,0.53 ± 0.011,0.308 ± 0.011,0.342 ± 0.02,0.5056 ± 0.0016,0.417 ± 0.016
GGGVWWGVLVLG,0.37 ± 0.028,0.451 ± 0.064,0.31 ± 0.037,0.50956 ± 0.00012,0.262 ± 0.0072,0.309 ± 0.033,0.4678 ± 0.0034,0.46142 ± 8.8e-05
GGGWAVLLWVQV,0.387 ± 0.019,0.457 ± 0.043,0.339 ± 0.029,0.476 ± 0.0087,0.29 ± 0.01,0.317 ± 0.017,0.442 ± 0.007,0.406 ± 0.022
GGVVGGVGVYDG,0.702 ± 0.012,0.7445 ± 0.0015,0.635 ± 0.016,0.748 ± 0.019,0.65 ± 0.021,0.65 ± 0.02,0.706 ± 0.015,0.707 ± 0.019
GGWGVFGVWVWM,0.476 ± 0.051,0.557 ± 0.0062,0.429 ± 0.027,0.59 ± 0.0025,0.186 ± 0.0072,0.214 ± 0.031,0.422 ± 0.012,0.324 ± 0.0082
GGYVTVTSVTVV,0.587 ± 0.051,0.62 ± 0.02,0.501 ± 0.025,0.605 ± 0.019,0.499 ± 0.035,0.506 ± 0.011,0.611 ± 0.015,0.468 ± 0.039
GHYQGVCHRRIC,0.657 ± 0.026,0.725 ± 0.019,0.64 ± 0.028,0.7667 ± 0.0054,0.18 ± 0.016,0.176 ± 0.024,0.368 ± 0.033,0.34 ± 0.015
GIISMYVARRLG,0.594 ± 0.037,0.689 ± 0.0079,0.661 ± 0.015,0.69833 ± 0.00068,0.149 ± 0.016,0.173 ± 0.034,0.3 ± 0.022,0.285 ± 0.019
GKVGGRMWVWRV,0.592 ± 0.041,0.73 ± 0.015,0.63 ± 0.013,0.72579 ± 0.00022,0.116 ± 0.014,0.129 ± 0.019,0.2406 ± 0.0022,0.257 ± 0.0031
GLGVIFFLLGYG,0.469 ± 0.028,0.507 ± 0.023,0.336 ± 0.033,0.5631 ± 0.0018,0.292 ± 0.019,0.327 ± 0.016,0.551 ± 0.051,0.429 ± 0.015
GLLFWSGVVSWV,0.2627 ± 0.0023,0.388 ± 0.058,0.243 ± 0.038,0.507 ± 0.0027,0.225 ± 0.0065,0.263 ± 0.038,0.504 ± 0.014,0.4 ± 0.0088
GLLVFRCINLRC,0.449 ± 0.013,0.47 ± 0.0085,0.429 ± 0.045,0.5558 ± 0.005,0.421 ± 0.021,0.357 ± 0.03,0.471 ± 0.017,0.357 ± 0.038
